Source: PMC5157838 (Analytical chemistry, 2015)
Values joined by “and” are separate entries in the source; they are usually repeats but may differ in a detail not shown here. Equal values may be shown once.

Target: the molecule itself
Test: native MS

B1: Glutamate dehydrogenase, purified from bovine liver (enzyme)
chain: not shown
For B1, the “stoichiometry N” value was 6 and 12.
